Data as given in patent US20060294600A1.

Target: Runx2 expressed from pCMV5 Cbfa1 in transfected cells
Assay: cell-based or functional assay

Substance: Fhl2 expressed from pCMX Fhl2 in Cos-7 cells (from UniProt Q14192 1-279)
- transcriptional activity of Runx2 (luciferase reporter, transient transfection in Cos-7 cells; 6xOSE2 artificial promoter and human osteocalcin promoter): 3 fold
